Assay results: patent publication EP4755403A1 (Jiangsu Hengrui Pharmaceuticals Co., Ltd., dated 2025)

Tests used:
[1] = target: T1, human PSMA (prostate specific membrane antigen) on tumor cells (human, UniProt Q04609 1-750); assay: flow cytometry on LNCaP cells, FITC anti-human IgG secondary
T1 construct: whole, on cells; also called PSMA antigen; LNCaP (+++)

[2] = target: T2, mouse PSMA-His (ACRO, PSA-M5245) (mouse, UniProt O35409 45-752); assay: SPR (Biacore T200), antibody captured on Protein A chip, antigen flowed over
T2 construct: Commercial protein; not shown: His tag

[3] = target: T1, human PSMA (prostate specific membrane …); assay: flow cytometry on 22RV1 cells, FITC anti-human IgG secondary
[4] = target: T3, human PSMA-His (ACRO, PSA-H52H3) (human, UniProt Q04609 44-750); assay: SPR (Biacore T200), antibody captured on Protein A chip, antigen flowed over, 1:1 model
T3 construct: Commercial protein; not shown: His tag

[5] = target: T4, monkey PSMA-His (ACRO, PSA-C5247) (monkey (cynomolgus), UniProt A0A2K5VNZ0 44-750); assay: as above
T4 construct: Commercial protein; also called cynomolgus monkey PSMA; not shown: His tag

[6] = target: T1, human PSMA (prostate specific membrane …); assay: cell-based or functional assay
[7] = target: T1, human PSMA (prostate specific membrane …); assay: flow cytometry on LNCaP cells, FITC anti-human IgG secondary; remark: listed apart in the source
[8] = target: T1, human PSMA (prostate specific membrane …); assay: flow cytometry on 22RV1 cells, FITC anti-human IgG secondary; remark: listed apart in the source
[9] = target: T1, human PSMA (prostate specific membrane …); assay: cell-based or functional assay; remark: listed apart in the source

T1 sequence (Q04609 whole entry): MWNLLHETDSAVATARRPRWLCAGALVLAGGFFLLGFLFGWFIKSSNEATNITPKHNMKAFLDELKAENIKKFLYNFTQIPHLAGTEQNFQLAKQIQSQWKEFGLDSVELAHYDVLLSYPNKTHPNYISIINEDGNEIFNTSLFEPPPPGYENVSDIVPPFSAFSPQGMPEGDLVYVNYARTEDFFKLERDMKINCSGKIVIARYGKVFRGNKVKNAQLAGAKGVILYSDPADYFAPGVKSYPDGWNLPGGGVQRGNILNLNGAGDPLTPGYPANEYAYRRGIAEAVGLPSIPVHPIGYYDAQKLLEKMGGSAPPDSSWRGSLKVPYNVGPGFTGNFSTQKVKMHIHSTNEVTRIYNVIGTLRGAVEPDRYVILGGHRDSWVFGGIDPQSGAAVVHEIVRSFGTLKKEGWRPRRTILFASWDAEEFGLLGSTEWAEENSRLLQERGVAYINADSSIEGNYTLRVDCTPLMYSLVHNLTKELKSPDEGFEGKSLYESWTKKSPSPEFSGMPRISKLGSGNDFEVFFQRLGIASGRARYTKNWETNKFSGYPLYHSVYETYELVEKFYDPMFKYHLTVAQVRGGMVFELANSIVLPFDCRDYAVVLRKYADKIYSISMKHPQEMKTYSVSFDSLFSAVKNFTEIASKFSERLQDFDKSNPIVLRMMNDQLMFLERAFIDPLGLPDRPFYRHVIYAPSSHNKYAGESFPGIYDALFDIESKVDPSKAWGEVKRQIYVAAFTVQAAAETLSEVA
T3 sequence (Q04609 44-750 limits assumed): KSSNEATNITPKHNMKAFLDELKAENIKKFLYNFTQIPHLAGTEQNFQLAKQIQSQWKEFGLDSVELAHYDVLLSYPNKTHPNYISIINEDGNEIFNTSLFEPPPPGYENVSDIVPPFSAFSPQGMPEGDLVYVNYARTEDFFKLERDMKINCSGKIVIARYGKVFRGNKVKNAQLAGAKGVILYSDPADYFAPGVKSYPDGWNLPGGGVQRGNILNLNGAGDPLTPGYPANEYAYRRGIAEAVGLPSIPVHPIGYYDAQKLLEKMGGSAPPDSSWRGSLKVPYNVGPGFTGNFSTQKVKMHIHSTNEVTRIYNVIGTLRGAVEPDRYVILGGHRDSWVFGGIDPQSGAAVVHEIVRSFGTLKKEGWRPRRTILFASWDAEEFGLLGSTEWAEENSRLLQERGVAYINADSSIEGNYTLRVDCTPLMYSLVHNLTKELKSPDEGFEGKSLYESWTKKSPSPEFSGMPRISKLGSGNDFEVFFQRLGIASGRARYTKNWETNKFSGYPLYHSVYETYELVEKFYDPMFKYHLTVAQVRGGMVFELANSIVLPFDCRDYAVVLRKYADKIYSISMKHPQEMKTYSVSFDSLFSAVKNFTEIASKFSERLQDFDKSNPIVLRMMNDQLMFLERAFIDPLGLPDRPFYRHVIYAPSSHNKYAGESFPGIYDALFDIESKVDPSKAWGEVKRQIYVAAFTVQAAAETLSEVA
T2 sequence (O35409 45-752): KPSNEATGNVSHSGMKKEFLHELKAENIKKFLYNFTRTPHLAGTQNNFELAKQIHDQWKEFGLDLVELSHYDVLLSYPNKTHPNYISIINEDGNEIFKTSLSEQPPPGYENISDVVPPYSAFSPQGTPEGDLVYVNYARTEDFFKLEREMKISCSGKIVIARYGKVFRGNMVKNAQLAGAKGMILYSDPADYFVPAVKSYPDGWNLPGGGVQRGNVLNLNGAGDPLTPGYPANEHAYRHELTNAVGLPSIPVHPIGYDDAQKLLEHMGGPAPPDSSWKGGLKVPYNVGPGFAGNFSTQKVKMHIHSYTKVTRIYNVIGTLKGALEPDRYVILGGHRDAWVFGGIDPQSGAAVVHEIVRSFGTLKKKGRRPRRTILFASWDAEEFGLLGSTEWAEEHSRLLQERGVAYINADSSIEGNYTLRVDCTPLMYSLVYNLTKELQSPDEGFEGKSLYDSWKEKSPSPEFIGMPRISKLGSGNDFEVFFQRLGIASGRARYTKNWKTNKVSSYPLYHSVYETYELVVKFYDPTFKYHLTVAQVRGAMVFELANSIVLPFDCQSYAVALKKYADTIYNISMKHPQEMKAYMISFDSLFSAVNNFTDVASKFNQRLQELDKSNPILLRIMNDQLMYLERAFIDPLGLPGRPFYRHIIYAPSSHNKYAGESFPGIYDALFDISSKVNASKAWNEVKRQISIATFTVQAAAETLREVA

B1: P19 (19L2H2) (antibody, human IgG1, kappa, V domains shown)
VH: EVKLVESGGGLVQPGGSLRLSCAASGFTFSDYYMAWVRQAPGKGLEWVANINYDGSSTYYLDSLKSRFTISRDNAKNSLYLQMNSLRAEDTAVYYCARGGDYWDAMDYWGQGTTVTVSS
VL: DIQMTQSPSSLSASVGDRVTITCRASQDISKYLNWYQQKPGKAPKLLIYYTSSLHSGVPSRFSGSGSGTDYTLTISSLQPEDFATYYCQQGNRLPRTFGGGTKVEIKR
notes: Humanized anti-PSMA antibody from mouse mAb19-1 (hu19-1 VH2 + hu19-1 VL2), human IgG1 / kappa constant regions; also called antibody P19
EC50 [1]: 2.09 nM
binding result [2]: no binding
EC50 [3]: 0.0719 nM
Kd [4]: 1.3 nM
koff [4]: 7.92e-05 s⁻¹
kon [4]: 61100 M⁻¹ s⁻¹
Kd [5]: 5.08 nM
DT3C endocytosis assay on LNCaP cells, IC50 [6]: 0.25 nM
EC50 [7]: 0.305 nM
EC50 [8]: 0.637 nM

B2: ADC-1 (P19-9-A, n = 5.55) (antibody, human IgG1, kappa, V domains shown)
VH: EVKLVESGGGLVQPGGSLRLSCAASGFTFSDYYMAWVRQAPGKGLEWVANINYDGSSTYYLDSLKSRFTISRDNAKNSLYLQMNSLRAEDTAVYYCARGGDYWDAMDYWGQGTTVTVSS
VL: DIQMTQSPSSLSASVGDRVTITCRASQDISKYLNWYQQKPGKAPKLLIYYTSSLHSGVPSRFSGSGSGTDYTLTISSLQPEDFATYYCQQGNRLPRTFGGGTKVEIKR
modifications: drug-linker 9-A coupled via sulfhydryl groups on cysteine; mean n = 5.55 per antibody (positions not stated)
killing of 22RV1 (+) cells, CellTiter-Glo, IC50 [9]: 29.5 nM
killing of LNCaP (+++) cells, CellTiter-Glo, IC50 [9]: 8.52 nM
EC50 [3]: 0.114 nM
EC50 [7]: 0.442 nM

B3: ADC-2 (P19-9-A, n = 7.41) (antibody, human IgG1, kappa, V domains shown)
VH: EVKLVESGGGLVQPGGSLRLSCAASGFTFSDYYMAWVRQAPGKGLEWVANINYDGSSTYYLDSLKSRFTISRDNAKNSLYLQMNSLRAEDTAVYYCARGGDYWDAMDYWGQGTTVTVSS
VL: DIQMTQSPSSLSASVGDRVTITCRASQDISKYLNWYQQKPGKAPKLLIYYTSSLHSGVPSRFSGSGSGTDYTLTISSLQPEDFATYYCQQGNRLPRTFGGGTKVEIKR
modifications: drug-linker 9-A coupled via sulfhydryl groups on cysteine; mean n = 7.41 per antibody (positions not stated)
killing of 22RV1 (+) cells, CellTiter-Glo, IC50 [9]: 6.92 nM
killing of LNCaP (+++) cells, CellTiter-Glo, IC50 [9]: 2.83 nM
EC50 [3]: 0.0812 nM
EC50 [7]: 0.307 nM

B4: H-AB-P1 (AB-PG1-XG1-006) (antibody, V domains shown)
VH: QVQLVESGGGVVQPGRSLRLSCAASGFAFSRYGMHWVRQAPGKGLEWVAVIWYDGSNKYYADSVKGRFTISRDNSKNTQYLQMNSLRAEDTAVYYCARGGDFLYYYYYGMDVWGQGTTVTVSS
VL: DIQMTQSPSSLSASVGDRVTITCRASQGISNYLAWYQQKTGKVPKFLIYEASTLQSGVPSRFSGGGSGTDFTLTISSLQPEDVATYYCQNYNSAPFTFGPGTKVDIK
DT3C endocytosis assay on LNCaP cells, IC50 [6]: 2.71 nM
